Source: publication PMC5931632, “A multi-antigenic MVA vaccine increases efficacy of combination chemotherapy against Mycobacterium tuberculosis” (PLoS ONE, 2018)

Molecular target: T1, Rv0287 (Mycobacterium tuberculosis, UniProt O53692 1-97)
T1 sequence: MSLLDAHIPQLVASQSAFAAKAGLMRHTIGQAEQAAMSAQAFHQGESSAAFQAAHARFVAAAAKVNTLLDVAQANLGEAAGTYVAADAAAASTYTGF
Assay: pull-down
Conditions: both partners purified

B1: TB10.4 (natural protein)
chain: MSQIMYNYPAMLGHAGDMAGYAGTLQSLGAEIAVEQAALQSAWQGDTGITYQAWQAQWNQAMEDLVRAYHAMSSTHEANTMAMMARDTAEAAKWGG
notes: also called Rv0288
binding result: binds
